Results from patent publication US20200087373A1 (UNIVERSITY OF COPENHAGEN, published 2020).
Ends that are not written are not given here. * marks the point of attachment. C16 diacid = O=C(O)CCCCCCCCCCCCCCC(=O)*

T1: human GIP receptor (human, UniProt P48546 22-466)
T1 construct: whole, on cells; also called hGIPR
T1 sequence (looked up): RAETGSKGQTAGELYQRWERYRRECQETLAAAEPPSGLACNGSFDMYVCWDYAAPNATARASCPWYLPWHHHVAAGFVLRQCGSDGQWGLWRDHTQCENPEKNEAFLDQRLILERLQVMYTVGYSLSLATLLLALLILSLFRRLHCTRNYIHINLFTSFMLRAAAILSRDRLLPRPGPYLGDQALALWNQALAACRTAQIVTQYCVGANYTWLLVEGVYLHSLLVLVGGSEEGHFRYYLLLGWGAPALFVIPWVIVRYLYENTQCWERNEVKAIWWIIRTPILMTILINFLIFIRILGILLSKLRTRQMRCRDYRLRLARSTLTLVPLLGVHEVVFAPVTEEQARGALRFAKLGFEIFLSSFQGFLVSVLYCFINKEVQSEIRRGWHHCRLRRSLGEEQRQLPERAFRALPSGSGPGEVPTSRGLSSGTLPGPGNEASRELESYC


Legend:
[1] = target: T1, human GIP receptor; assay: 125I-hGIP competition binding, COS-7/hGIPR, 0.1% casein;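 further: nonspecific binding defined as radioligand binding measured on untransfected cells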
Procedure: (§1) After incubation, the cells were washed twice in ice-cold binding buffer (+/−2% HSA) and lysed using 200 mM NaOH with 1% SDS for 30 min. Nonspecific binding was determined as the binding of radioactive ligand to untransfected cells.

[2] = target: T1, human GIP receptor; assay: IC50 with 2% HSA over IC50 with 0.1% casein, 125I-hGIP competition, COS-7/hGIPR
Procedure: as §1

[3] = target: T1, human GIP receptor; assay: 125I-hGIP competition binding, COS-7 cells expressing hGIPR;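 further: nonspecific binding taken as radioligand bound by untransfected cells, binding buffer with or without 2% HSA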
Procedure: as §1

[4] = target: T1, human GIP receptor; assay: cell-based or functional assay
[5] = target: T1, human GIP receptor; assay: 125I-hGIP competition binding, COS-7/hGIPR, 2% HSA;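 further: nonspecific binding defined as radioligand binding to untransfected cells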
Procedure: as §1

| Binder | IC50 [1] | logIC50 [1] | Fold change HSA (2%)/Casein (0.1%) [2] | IC50 [3] | log IC50 [3] | cAMP agonism, Emax [4] | cAMP antagonism [4] | cAMP antagonism, log [4] | IC50 [5] | logIC50 [5] | cAMP agonism [4] | cAMP agonism, EC50 (log) [4] |
| --- | --- | --- | --- | --- | --- | --- | --- | --- | --- | --- | --- | --- |
| TFISDYSK(C16 diacid)AMDKIHQQDFVNWLLAQK-NH2 (N-terminus assumed; SMILES CC[C@H](C)[C@H](NC(=O)[C@H](CCCCN)NC(=O)[C@H](CC(=O)O)NC(=O)[C@H](CCSC)NC(=O)[C@H](C)NC(=O)[C@H](CCCCNC(=O)CCCCCCCCCCCCCCC(=O)O)NC(=O)[C@H](CO)NC(=O)[C@H](Cc1ccc(O)cc1)NC(=O)[C@H](CC(=O)O)NC(=O)[C@H](CO)NC(=O)[C@@H](NC(=O)[C@H](Cc1ccccc1)NC(=O)[C@@H](N)[C@@H](C)O)[C@@H](C)CC)C(=O)N[C@@H](Cc1c[nH]cn1)C(=O)N[C@@H](CCC(N)=O)C(=O)N[C@@H](CCC(N)=O)C(=O)N[C@@H](CC(=O)O)C(=O)N[C@@H](Cc1ccccc1)C(=O)N[C@H](C(=O)N[C@@H](CC(N)=O)C(=O)N[C@@H](Cc1c[nH]c2ccccc12)C(=O)N[C@@H](CC(C)C)C(=O)N[C@@H](CC(C)C)C(=O)N[C@@H](C)C(=O)N[C@@H](CCC(N)=O)C(=O)N[C@@H](CCCCN)C(N)=O)C(C)C) [AT174 [hGIP(5-30)NH2[I12K]-C16diacid/12]] | 79.4 nM | -7.1 log M | 3.5 fold | 80 nM | -7.1 log M | 0 | 23 nM | -7.6 log M | 282 nM | -6.6 log M | – | – |
| TFISDYSIK(C16 diacid)MDKIHQQDFVNWLLAQK-NH2 (N-terminus assumed; SMILES CC[C@H](C)[C@H](NC(=O)[C@H](CCCCN)NC(=O)[C@H](CC(=O)O)NC(=O)[C@H](CCSC)NC(=O)[C@H](CCCCNC(=O)CCCCCCCCCCCCCCC(=O)O)NC(=O)[C@@H](NC(=O)[C@H](CO)NC(=O)[C@H](Cc1ccc(O)cc1)NC(=O)[C@H](CC(=O)O)NC(=O)[C@H](CO)NC(=O)[C@@H](NC(=O)[C@H](Cc1ccccc1)NC(=O)[C@@H](N)[C@@H](C)O)[C@@H](C)CC)[C@@H](C)CC)C(=O)N[C@@H](Cc1c[nH]cn1)C(=O)N[C@@H](CCC(N)=O)C(=O)N[C@@H](CCC(N)=O)C(=O)N[C@@H](CC(=O)O)C(=O)N[C@@H](Cc1ccccc1)C(=O)N[C@H](C(=O)N[C@@H](CC(N)=O)C(=O)N[C@@H](Cc1c[nH]c2ccccc12)C(=O)N[C@@H](CC(C)C)C(=O)N[C@@H](CC(C)C)C(=O)N[C@@H](C)C(=O)N[C@@H](CCC(N)=O)C(=O)N[C@@H](CCCCN)C(N)=O)C(C)C) [AT175 [hGIP(5-30)NH2[A13K]-C16diacid/13]] | 72.4 nM | -7.1 log M | 7.8 fold | 73 nM | -7.1 log M | 0 | 17 nM | -7.8 log M | 562 nM | -6.3 log M | – | – |
| TFISDYSIAK(C16 diacid)DKIHQQDFVNWLLAQK-NH2 (N-terminus assumed; SMILES CC[C@H](C)[C@H](NC(=O)[C@H](CO)NC(=O)[C@H](Cc1ccc(O)cc1)NC(=O)[C@H](CC(=O)O)NC(=O)[C@H](CO)NC(=O)[C@@H](NC(=O)[C@H](Cc1ccccc1)NC(=O)[C@@H](N)[C@@H](C)O)[C@@H](C)CC)C(=O)N[C@@H](C)C(=O)N[C@@H](CCCCNC(=O)CCCCCCCCCCCCCCC(=O)O)C(=O)N[C@@H](CC(=O)O)C(=O)N[C@@H](CCCCN)C(=O)N[C@H](C(=O)N[C@@H](Cc1c[nH]cn1)C(=O)N[C@@H](CCC(N)=O)C(=O)N[C@@H](CCC(N)=O)C(=O)N[C@@H](CC(=O)O)C(=O)N[C@@H](Cc1ccccc1)C(=O)N[C@H](C(=O)N[C@@H](CC(N)=O)C(=O)N[C@@H](Cc1c[nH]c2ccccc12)C(=O)N[C@@H](CC(C)C)C(=O)N[C@@H](CC(C)C)C(=O)N[C@@H](C)C(=O)N[C@@H](CCC(N)=O)C(=O)N[C@@H](CCCCN)C(N)=O)C(C)C)[C@@H](C)CC) [AT176 [hGIP(5-30)NH2[M14K]-C16diacid/14]] | 115 nM | -6.9 log M | 4.9 fold | 114 nM | -6.9 log M | 12 | 121 nM | -6.9 log M | 562 nM | -6.3 log M | 121 nM | -7 log M |
| TFISDYSIAMDKK(C16 diacid)HQQDFVNWLLAQK-NH2 (N-terminus assumed; SMILES CC[C@H](C)[C@H](NC(=O)[C@H](CO)NC(=O)[C@H](Cc1ccc(O)cc1)NC(=O)[C@H](CC(=O)O)NC(=O)[C@H](CO)NC(=O)[C@@H](NC(=O)[C@H](Cc1ccccc1)NC(=O)[C@@H](N)[C@@H](C)O)[C@@H](C)CC)C(=O)N[C@@H](C)C(=O)N[C@@H](CCSC)C(=O)N[C@@H](CC(=O)O)C(=O)N[C@@H](CCCCN)C(=O)N[C@@H](CCCCNC(=O)CCCCCCCCCCCCCCC(=O)O)C(=O)N[C@@H](Cc1c[nH]cn1)C(=O)N[C@@H](CCC(N)=O)C(=O)N[C@@H](CCC(N)=O)C(=O)N[C@@H](CC(=O)O)C(=O)N[C@@H](Cc1ccccc1)C(=O)N[C@H](C(=O)N[C@@H](CC(N)=O)C(=O)N[C@@H](Cc1c[nH]c2ccccc12)C(=O)N[C@@H](CC(C)C)C(=O)N[C@@H](CC(C)C)C(=O)N[C@@H](C)C(=O)N[C@@H](CCC(N)=O)C(=O)N[C@@H](CCCCN)C(N)=O)C(C)C) [AT178 [hGIP(5-30)NH2[I17K]-C16diacid/17]] | 66.1 nM | -7.2 log M | 3 fold | 66 nM | -7.2 log M | 0 | 33 nM | -7.5 log M | 195 nM | -6.7 log M | – | – |
| TFISDYSIAMK(C16 diacid)KIHQQDFVNWLLAQK-NH2 (N-terminus assumed; SMILES CC[C@H](C)[C@H](NC(=O)[C@H](CO)NC(=O)[C@H](Cc1ccc(O)cc1)NC(=O)[C@H](CC(=O)O)NC(=O)[C@H](CO)NC(=O)[C@@H](NC(=O)[C@H](Cc1ccccc1)NC(=O)[C@@H](N)[C@@H](C)O)[C@@H](C)CC)C(=O)N[C@@H](C)C(=O)N[C@@H](CCSC)C(=O)N[C@@H](CCCCNC(=O)CCCCCCCCCCCCCCC(=O)O)C(=O)N[C@@H](CCCCN)C(=O)N[C@H](C(=O)N[C@@H](Cc1c[nH]cn1)C(=O)N[C@@H](CCC(N)=O)C(=O)N[C@@H](CCC(N)=O)C(=O)N[C@@H](CC(=O)O)C(=O)N[C@@H](Cc1ccccc1)C(=O)N[C@H](C(=O)N[C@@H](CC(N)=O)C(=O)N[C@@H](Cc1c[nH]c2ccccc12)C(=O)N[C@@H](CC(C)C)C(=O)N[C@@H](CC(C)C)C(=O)N[C@@H](C)C(=O)N[C@@H](CCC(N)=O)C(=O)N[C@@H](CCCCN)C(N)=O)C(C)C)[C@@H](C)CC) [AT177 [hGIP(5-30)NH2[D15K]-C16diacid/15]] | 135 nM | -6.87 log M | 3.8 fold | 134 nM | -6.9 log M | 30 | 59 nM | -7.2 log M | 513 nM | -6.29 log M | 59 nM | -7 log M |
